According to US20110301079A1 (INSTITUTO DI RICERCHE DI BIOLOGIA MOLECOLARE P ANGELETTI S …, published 2011):
Groups on a side chain read outwards from the residue. *: point of attachment. cholesteroyl = cholesterol group linked to a cysteine residue via the side-chain thiol; Succinimide(1-Et,3-yl) = CCN1C(=O)CC(*)C1=O

What was measured:
Assay in all cases: cell-based or functional assay
[1] = target: dog NMUR2 (dog)
[2] = target: T1, dog NMUR1-ATG (dog, UniProt A0A8I3S7S8 1-422)
T1 sequence: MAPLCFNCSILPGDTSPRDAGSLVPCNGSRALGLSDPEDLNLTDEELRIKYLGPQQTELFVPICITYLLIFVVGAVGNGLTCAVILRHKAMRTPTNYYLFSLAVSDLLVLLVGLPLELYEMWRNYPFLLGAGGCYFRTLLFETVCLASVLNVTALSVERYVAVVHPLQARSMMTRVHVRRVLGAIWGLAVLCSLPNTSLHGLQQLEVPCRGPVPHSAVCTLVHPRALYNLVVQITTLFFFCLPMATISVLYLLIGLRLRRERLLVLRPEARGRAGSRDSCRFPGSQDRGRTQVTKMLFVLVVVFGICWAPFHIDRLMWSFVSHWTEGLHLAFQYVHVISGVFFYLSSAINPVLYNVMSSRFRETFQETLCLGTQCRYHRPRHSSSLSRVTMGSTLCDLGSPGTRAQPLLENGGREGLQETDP

[3] = target: human NMUR2 (human, UniProt Q9GZQ4 1-415)
[4] = target: T2, mouse NMUR1-ATG (mouse, UniProt O55040 1-428)
T2 sequence (looked up): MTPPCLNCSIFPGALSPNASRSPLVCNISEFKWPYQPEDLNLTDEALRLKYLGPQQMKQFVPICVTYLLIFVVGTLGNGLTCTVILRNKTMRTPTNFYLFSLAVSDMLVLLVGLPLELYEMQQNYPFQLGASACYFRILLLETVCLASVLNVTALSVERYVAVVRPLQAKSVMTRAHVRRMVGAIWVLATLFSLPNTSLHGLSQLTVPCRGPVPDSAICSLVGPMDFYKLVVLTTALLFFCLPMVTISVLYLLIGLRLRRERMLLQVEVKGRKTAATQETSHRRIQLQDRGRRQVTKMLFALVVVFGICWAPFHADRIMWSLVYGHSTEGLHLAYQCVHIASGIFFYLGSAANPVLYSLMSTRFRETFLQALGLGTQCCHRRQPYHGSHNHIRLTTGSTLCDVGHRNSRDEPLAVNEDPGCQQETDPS

[5] = target: mouse NMUR2 (mouse, UniProt Q8BZ39 1-395)
[6] = target: T3, human NMUR1 (human, UniProt Q9HB89 1-426)
T3 sequence (looked up): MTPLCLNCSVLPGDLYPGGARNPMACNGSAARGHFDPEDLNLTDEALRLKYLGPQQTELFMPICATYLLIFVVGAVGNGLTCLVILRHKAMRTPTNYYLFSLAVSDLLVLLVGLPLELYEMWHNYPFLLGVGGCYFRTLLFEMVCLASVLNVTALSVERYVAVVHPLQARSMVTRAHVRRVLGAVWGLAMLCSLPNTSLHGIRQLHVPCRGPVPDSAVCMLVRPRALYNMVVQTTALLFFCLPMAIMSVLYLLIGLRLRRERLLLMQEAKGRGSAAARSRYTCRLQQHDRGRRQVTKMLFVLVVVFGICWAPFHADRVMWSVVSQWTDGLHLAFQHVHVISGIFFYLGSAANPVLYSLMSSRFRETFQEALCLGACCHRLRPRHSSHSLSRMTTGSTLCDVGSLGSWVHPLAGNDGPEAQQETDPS

human NMUR2, sequence (Q9GZQ4 whole entry): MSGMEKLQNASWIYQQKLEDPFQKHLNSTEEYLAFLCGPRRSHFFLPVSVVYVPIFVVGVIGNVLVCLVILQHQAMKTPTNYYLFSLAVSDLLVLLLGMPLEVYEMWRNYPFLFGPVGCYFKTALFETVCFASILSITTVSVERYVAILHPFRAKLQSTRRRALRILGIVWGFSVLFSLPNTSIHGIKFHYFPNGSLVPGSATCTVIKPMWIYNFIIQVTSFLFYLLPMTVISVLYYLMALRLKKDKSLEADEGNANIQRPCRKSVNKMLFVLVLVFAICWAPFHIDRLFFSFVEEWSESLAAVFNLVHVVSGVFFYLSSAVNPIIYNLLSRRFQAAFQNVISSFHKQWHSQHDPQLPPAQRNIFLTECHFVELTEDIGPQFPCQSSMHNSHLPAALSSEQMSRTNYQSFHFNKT
mouse NMUR2, sequence (Q8BZ39 whole entry): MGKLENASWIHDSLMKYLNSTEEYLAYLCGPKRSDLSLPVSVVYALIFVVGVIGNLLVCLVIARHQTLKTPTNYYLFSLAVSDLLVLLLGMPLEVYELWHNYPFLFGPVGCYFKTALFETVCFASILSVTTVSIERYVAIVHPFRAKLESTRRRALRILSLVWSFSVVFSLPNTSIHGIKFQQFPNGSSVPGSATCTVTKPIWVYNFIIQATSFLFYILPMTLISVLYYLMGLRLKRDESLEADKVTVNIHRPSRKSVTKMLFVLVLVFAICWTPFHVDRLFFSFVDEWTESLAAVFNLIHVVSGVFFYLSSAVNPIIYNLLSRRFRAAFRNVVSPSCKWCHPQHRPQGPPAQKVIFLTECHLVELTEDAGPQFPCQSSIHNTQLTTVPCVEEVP

## Ac-C(cholesteroyl)ILQRGSGTAAVDFTKKDHTATWGRPFFLFRPRN-NH2 [NMS2 (Ac-C3ILQRGSGTAAVDFTKKDHTATWGRPFFLFRPRN-CONH2)]
[1]
  % Activity (maximum response at 1 µM compared to the human NMU-25 response): 84%
[2]
  % Activity (maximum response at 1 µM compared to the human NMU-25 response): 46%
[3]
  % Activity (maximum response at 1 µM compared to the human NMU-25 response): 16%
[4]
  % Activity (maximum response at 1 µM compared to the human NMU-25 response): 39%
[5]
  % Activity (maximum response at 1 µM compared to the human NMU-25 response): 32%
[6]
  % Activity (maximum response at 1 µM compared to the human NMU-25 response): 11%

B1: NMS3 (Ac-C1ILQRGSGTAAVDFTKKDHTATWGRPFFLFRPRN-CONH2) (peptide)
peptide: Ac-C(Succinimide(1-Et,3-yl))ILQRGSGTAAVDFTKKDHTATWGRPFFLFRPRN-NH2
SMILES: CC[C@H](C)[C@H](NC(=O)[C@H](CSC1CC(=O)N(CC)C1=O)NC(C)=O)C(=O)N[C@@H](CC(C)C)C(=O)N[C@@H](CCC(N)=O)C(=O)N[C@@H](CCCNC(=N)N)C(=O)NCC(=O)N[C@@H](CO)C(=O)NCC(=O)N[C@H](C(=O)N[C@@H](C)C(=O)N[C@@H](C)C(=O)N[C@H](C(=O)N[C@@H](CC(=O)O)C(=O)N[C@@H](Cc1ccccc1)C(=O)N[C@H](C(=O)N[C@@H](CCCCN)C(=O)N[C@@H](CCCCN)C(=O)N[C@@H](CC(=O)O)C(=O)N[C@@H](Cc1c[nH]cn1)C(=O)N[C@H](C(=O)N[C@@H](C)C(=O)N[C@H](C(=O)N[C@@H](Cc1c[nH]c2ccccc12)C(=O)NCC(=O)N[C@@H](CCCNC(=N)N)C(=O)N1CCC[C@H]1C(=O)N[C@@H](Cc1ccccc1)C(=O)N[C@@H](Cc1ccccc1)C(=O)N[C@@H](CC(C)C)C(=O)N[C@@H](Cc1ccccc1)C(=O)N[C@@H](CCCNC(=N)N)C(=O)N1CCC[C@H]1C(=O)N[C@@H](CCCNC(=N)N)C(=O)N[C@@H](CC(N)=O)C(N)=O)[C@@H](C)O)[C@@H](C)O)[C@@H](C)O)C(C)C)[C@@H](C)O
[1]
  % Activity (maximum response at 1 µM compared to the human NMU-25 response): 107%
[2]
  % Activity (maximum response at 1 µM compared to the human NMU-25 response): 101%
[3]
  % Activity (maximum response at 1 µM compared to the human NMU-25 response): 105%
[4]
  % Activity (maximum response at 1 µM compared to the human NMU-25 response): 98%
[5]
  % Activity (maximum response at 1 µM compared to the human NMU-25 response): 108%
[6]
  % Activity (maximum response at 1 µM compared to the human NMU-25 response): 97%

## Ac-C([maleimide-PEG 40 kDa])ILQRGSGTAAVDFTKKDHTATWGRPFFLFRPRN-NH2 [NMS4 (Ac-C4ILQRGSGTAAVDFTKKDHTATWGRPFFLFRPRN-CONH2)]
[1]
  % Activity (maximum response at 1 µM compared to the human NMU-25 response): 101%
[2]
  % Activity (maximum response at 1 µM compared to the human NMU-25 response): 81%
[3]
  % Activity (maximum response at 1 µM compared to the human NMU-25 response): 94%
[4]
  % Activity (maximum response at 1 µM compared to the human NMU-25 response): 95%
[5]
  % Activity (maximum response at 1 µM compared to the human NMU-25 response): 104%
[6]
  % Activity (maximum response at 1 µM compared to the human NMU-25 response): 88%

## H-ILQRGSGTAAVDFTKKDHTATWGRPFFLFRPRN-NH2 [native human Neuromedin S peptide (NMS)]
[1]
  % Activity (maximum response at 1 µM compared to the human NMU-25 response): 104%
[2]
  % Activity (maximum response at 1 µM compared to the human NMU-25 response): 100%
[3]
  % Activity (maximum response at 1 µM compared to the human NMU-25 response): 107%
[4]
  % Activity (maximum response at 1 µM compared to the human NMU-25 response): 102%
[5]
  % Activity (maximum response at 1 µM compared to the human NMU-25 response): 111%
[6]
  % Activity (maximum response at 1 µM compared to the human NMU-25 response): 97%

B2: NMS5 (Pam-ILQRGSGTAAVDFTKKDHTATWGRPFFLFRPRN-CONH2) (peptide)
peptide: ILQRGSGTAAVDFTKKDHTATWGRPFFLFRPRN
HELM: PEPTIDE1{[CCCCCCCCCCCCCCCC(=O)[*:2]].I.L.Q.R.G.S.G.T.A.A.V.D.F.T.K.K.D.H.T.A.T.W.G.R.P.F.F.L.F.R.P.R.N.[am]}$$$$V2.0
SMILES: CCCCCCCCCCCCCCCC(=O)N[C@H](C(=O)N[C@@H](CC(C)C)C(=O)N[C@@H](CCC(N)=O)C(=O)N[C@@H](CCCNC(=N)N)C(=O)NCC(=O)N[C@@H](CO)C(=O)NCC(=O)N[C@H](C(=O)N[C@@H](C)C(=O)N[C@@H](C)C(=O)N[C@H](C(=O)N[C@@H](CC(=O)O)C(=O)N[C@@H](Cc1ccccc1)C(=O)N[C@H](C(=O)N[C@@H](CCCCN)C(=O)N[C@@H](CCCCN)C(=O)N[C@@H](CC(=O)O)C(=O)N[C@@H](Cc1c[nH]cn1)C(=O)N[C@H](C(=O)N[C@@H](C)C(=O)N[C@H](C(=O)N[C@@H](Cc1c[nH]c2ccccc12)C(=O)NCC(=O)N[C@@H](CCCNC(=N)N)C(=O)N1CCC[C@H]1C(=O)N[C@@H](Cc1ccccc1)C(=O)N[C@@H](Cc1ccccc1)C(=O)N[C@@H](CC(C)C)C(=O)N[C@@H](Cc1ccccc1)C(=O)N[C@@H](CCCNC(=N)N)C(=O)N1CCC[C@H]1C(=O)N[C@@H](CCCNC(=N)N)C(=O)N[C@@H](CC(N)=O)C(N)=O)[C@@H](C)O)[C@@H](C)O)[C@@H](C)O)C(C)C)[C@@H](C)O)[C@@H](C)CC
[1]
  % Activity (maximum response at 1 µM compared to the human NMU-25 response): 100%
[2]
  % Activity (maximum response at 1 µM compared to the human NMU-25 response): 82%
[3]
  % Activity (maximum response at 1 µM compared to the human NMU-25 response): 93%
[4]
  % Activity (maximum response at 1 µM compared to the human NMU-25 response): 83%
[5]
  % Activity (maximum response at 1 µM compared to the human NMU-25 response): 78%
[6]
  % Activity (maximum response at 1 µM compared to the human NMU-25 response): 85%

## Ac-C([maleimide-(PEG)2 40 kDa])ILQRGSGTAAVDFTKKDHTATWGRPFFLFRPRN-NH2 [NMS1 (Ac-C2ILQRGSGTAAVDFTKKDHTATWGRPFFLFRPRN-CONH2)]
[1]
  % Activity (maximum response at 1 µM compared to the human NMU-25 response): 78%
[2]
  % Activity (maximum response at 1 µM compared to the human NMU-25 response): 97%
[3]
  % Activity (maximum response at 1 µM compared to the human NMU-25 response): 81%
[4]
  % Activity (maximum response at 1 µM compared to the human NMU-25 response): 82%
[5]
  % Activity (maximum response at 1 µM compared to the human NMU-25 response): 99%
[6]
  % Activity (maximum response at 1 µM compared to the human NMU-25 response): 91%
